Each block holds one substance with its values, some of them ahead of it.
Key:
[1] = target: tEGFR-ω fusion (extracellular and transmembrane regions of the EGF receptor fused to the ω fragment); test: cell-based or functional assay
[2] = target: ω-NLS (ω fragment fused to a triplet SV40 nuclear localization signal); test: cell-based or functional assay
Chain of ω-NLS (ω fragment fused to a triplet SV40 nuclear localization signal) (P00722 other isoform, or with tags, fused parts or gaps): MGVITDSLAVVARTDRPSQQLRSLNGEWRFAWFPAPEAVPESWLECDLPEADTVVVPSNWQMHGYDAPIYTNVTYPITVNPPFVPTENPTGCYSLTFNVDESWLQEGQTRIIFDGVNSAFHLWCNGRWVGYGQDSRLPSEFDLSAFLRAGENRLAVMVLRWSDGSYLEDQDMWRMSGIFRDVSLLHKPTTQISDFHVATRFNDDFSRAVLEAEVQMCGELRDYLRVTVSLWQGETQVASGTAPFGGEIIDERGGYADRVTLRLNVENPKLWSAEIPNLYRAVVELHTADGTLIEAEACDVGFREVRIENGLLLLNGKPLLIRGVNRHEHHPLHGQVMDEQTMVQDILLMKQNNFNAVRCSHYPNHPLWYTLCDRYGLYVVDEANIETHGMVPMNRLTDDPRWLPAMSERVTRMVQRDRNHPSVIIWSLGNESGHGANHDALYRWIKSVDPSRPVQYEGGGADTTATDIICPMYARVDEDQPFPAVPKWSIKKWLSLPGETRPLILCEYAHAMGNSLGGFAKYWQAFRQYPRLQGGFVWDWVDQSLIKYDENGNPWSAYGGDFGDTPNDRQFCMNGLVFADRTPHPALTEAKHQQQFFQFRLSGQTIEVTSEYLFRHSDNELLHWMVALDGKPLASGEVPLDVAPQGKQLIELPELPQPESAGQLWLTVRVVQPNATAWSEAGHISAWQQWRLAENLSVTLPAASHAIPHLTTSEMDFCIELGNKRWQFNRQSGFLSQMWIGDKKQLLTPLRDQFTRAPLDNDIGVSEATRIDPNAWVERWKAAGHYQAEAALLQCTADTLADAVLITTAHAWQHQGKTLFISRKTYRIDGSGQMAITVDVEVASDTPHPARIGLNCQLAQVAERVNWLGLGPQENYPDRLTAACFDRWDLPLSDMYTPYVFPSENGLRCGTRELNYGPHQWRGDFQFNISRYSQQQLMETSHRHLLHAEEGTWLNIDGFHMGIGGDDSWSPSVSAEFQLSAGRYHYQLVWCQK

Chain of tEGFR-ω fusion (extracellular and transmembrane regions of the EGF receptor fused to the ω fragment) (P00722 other isoform, or with tags, fused parts or gaps): as above

increase in β-galactosidase activity on PMA (NIH 3T3 cells, membrane translocation assay) [1]: < 10 % increase
Substance: C1A domain of PKCγ fused to GFP-α (wild type α peptide) (from UniProt P42212 1-238)

fold induction of β-galactosidase activity on PMA (NIH 3T3 cells, membrane translocation assay) (fold induction) [1]: 7
Substance: C1A domain of PKCγ fused to the GFP-α H31R point mutant (from UniProt P42212 1-238)

Substance: NES-GFP-α-NLS protein (MEK nuclear export signal, GFP, α peptide, triplet SV40 NLS) (from UniProt P42212 1-238)
β-galactosidase activity after leptomycin B for 2 hours (gain of signal assay, luminescent substrate) (fold increase) [2]: 3.5
β-galactosidase activity after leptomycin B (loss of signal assay) (fold decrease) [1]: 5

increase in β-galactosidase activity on PDGF, luminescent assay in 3T3 cells [1]: 5 fold
increase in β-galactosidase activity on insulin, luminescent assay in 3T3 cells [1]: 2.5 fold
increase in β-galactosidase activity on osmotic shock (sorbitol), luminescent assay in 3T3 cells [1]: 8 fold
Substance: PH domain of AKT fused to the GFP-α chimera (from UniProt P42212 1-238)

Substance: glucocorticoid receptor fused to the amino-terminus of the GFP-α fusion (from UniProt P42212 1-238)
change in β-galactosidase activity with dexamethasone, DDAO substrate, flow cytometry of live cells [2]: 5 to 10 fold change
difference in β-galactosidase activity at 30 min of dexamethasone (gain of signal assay) [2]: 100%
β-galactosidase activity after 1 µM dexamethasone for 3 hours (gain of signal assay) (fold induction) [2]: 3.5
change in β-galactosidase activity with dexamethasone, DDAO substrate, flow cytometry of live cells [1]: 5 to 10 fold change
difference in β-galactosidase activity at 30 min of dexamethasone (loss of signal assay) [1]: 25%
β-galactosidase activity after 1 µM dexamethasone for 3 hours (loss of signal assay) [1]: 5 fold
